From patent publication US20250257133A1 (ADAGENE PTE, published 2025) come the findings set out here.

Like-named read-outs stand apart in the source and are kept apart here.

Experiment [1] concerns the target T1, Recombinant human CD28-Fc (human, UniProt P10747 19-152).
T1 construct: not shown: Fc part
As to the kind of experiment: ELISA, coated CD28-Fc. In general terms: In an ELISA, binding on a coated surface is turned into a signal by an enzyme label.

Experiment [2] has as its target T2, His-tagged human CD28 protein (human, UniProt P10747 19-152).
T2 construct: not shown: His tag
Description: Octet BLI, mAb captured.

In experiment [3] the target is T3, His-tagged human CTLA4 protein (human, UniProt P16410 36-161, limits assumed).
T3 construct: not shown: His tag
Description: Octet BLI, mAb captured. In general terms: Biolayer interferometry detects binding as a change in optical thickness at a sensor tip.

Experiment [4] has as its target T4, Human CD28 on cells (human, UniProt P10747 19-220).
T4 construct: Jurkat E6-1 cells, primary human T cells, or transfected HEK293F cells; also called CD28 on Jurkat cells; CD28 on human CD3+ T cells
As to the kind of experiment: flow cytometry, Jurkat cells. A general note: Flow cytometry measures light scatter and fluorescence of single cells or particles in a stream.
Description: Next, the cells were washed twice with DPBS and further incubated with a APC-anti-human IgG Fc secondary antibody (1 μg/mL, 100 μL/well, Biolegend) for 30 minutes at 4° C. Finally, the cells were washed twice with DPBS and suspended in FACS buffer for flow cytometry analysis. For analysis, the Mean Fluorescence Intensity (MFI) values versus concentrations were plotted using FlowJo 10 software (FlowJo LLC) and the data were further fitted with four-parameter non-linear regression to obtain EC₅₀ values by GraphPad Prism version 7 for Windows, GraphPad Software, La Jolla California USA, www.graphpad.com.

In experiment [5] the target is Human CD28 (ELISAs of Examples 4 and 13) (human, UniProt P10747 19-152, limits assumed). As to the kind of experiment: ELISA, blocking of CD28-CD80.
For experiment [6], the target named is T5, Recombinant mouse CD28-Fc (mouse, UniProt P31041 20-150).
T5 construct: not shown: Fc part
As to the kind of experiment: ELISA on coated recombinant mouse CD28-Fc, HRP anti-human IgG (Fab specific), A450; panel 'Mouse CD28'.

Experiment [7] concerns the target T3, His-tagged human CTLA4 protein. As to the kind of experiment: Octet BLI, mAb captured. The source holds these as a separate data set.
Description: The Octet® RED96 Systems (ForteBio) was used to assess the binding kinetics of the panel of anti-CD28 mAbs to human CD28 and CTLA4. Briefly, the mAbs were diluted to 15 μg/mL in kinetic buffer (PBS supplemented with 0.02% Tween 20 and 0.1% BSA), and captured by Dip and Read AHC biosensors (ForteBio) in parallel. The sensors were then allowed to associate with His-tagged human CD28 and CTLA4 proteins (100 nM) for 300 seconds, and to dissociate in kinetic buffer for another 300 seconds. The association and dissociation curves were fitted to a 1:1 Langmuir binding model using the Octet® Data Analysis Software Version 7.1 (ForteBio).
For experiment [8], the target named is T5, Recombinant mouse CD28-Fc. Description: ELISA, coated CD28-Fc.
Description: Recombinant human and mouse CD28-Fc were diluted to 2 g/mL in PBS and coated on Nunc MaxiSorp™ high protein-binding capacity 96 well ELISA plates (ThermoFisher Scientific) at 4° C. overnight. Plates were blocked with PBS supplemented with 3% non-fat milk at 37° C. for 1 hour. After washing, 50 PL of 3-fold serial dilutions of a panel of anti-CD28 test mAbs were added to each well. After incubation at 37° C. for 1 hour, plates were washed four times, and 100 μL of a horseradish peroxidase (HRP)-conjugated anti-human IgG (Fab specific) (1:6000 dilution) secondary antibody was added to each well. Plates were incubated at 37° C. for 1 hour, washed four times, and then 50 μL of a TMB substrate (3, 3′, 5, 5′-tetramethylbenzidine) solution was added to each well, and the plate was incubated at room temperature. Absorbance at 450 nm was measured after the reactions were stopped by adding 50 μL of a sulfuric acid stop solution to each well. The EC₅₀ was evaluated by fitting the ELISA data using the asymmetrical sigmoidal (4-parameter logistic equation) model of GraphPad Prism version 7 for Windows, GraphPad Software, La Jolla California USA, www.graphpad.com.
The target in experiment [9] is T1, Recombinant human CD28-Fc. Description: ELISA on coated recombinant human CD28-Fc, HRP anti-human IgG (Fab specific), A450.
Description: (§1) When measuring the masking efficiency through ELISA, recombinant human CD28-Fc was diluted to 2 g/mL in PBS and coated onto a MaxiSorp™ high protein-binding capacity 96 well ELISA plate (ThermoFisher Scientific) at 4° C. overnight. Plates were blocked with PBS supplemented with 3% non-fat milk at 37° C. for 1 hour. After washing, 100 μL of 3-fold serial dilutions of anti-CD28 test mAbs were added to each well. After incubation at 37° C. for 1 hour, plates were washed four times, and 100 μL horseradish peroxidase (HRP)-conjugated anti-human IgG (Fab specific) (1:6000 dilution) secondary antibody was added to each well. Plates were incubated at 37° C. for 1 hour, washed four times, and then 50 μL a TMB substrate (3, 3′, 5, 5′-tetramethylbenzidine) solution was added to each well, and the plate was incubated at room temperature. Absorbance at 450 nm was measured after the reactions were stopped with 50 μL sulfuric acid stop solution per well. The EC₅₀ was evaluated by fitting the ELISA data using the sigmoidal (four-parameter logistic equation) model of GraphPad Prism version 6 for Windows, GraphPad Software, La Jolla California USA, www.graphpad.com.
Experiment [10] concerns the target T1, Recombinant human CD28-Fc. The experiment is described as above. The source holds these as a separate data set.
Description: as §1
Experiment [11] deals with T6, HER2 on SK-OV-3 cells (UniProt P04626 23-1255, limits assumed).
T6 construct: whole, on cells; also called HER2 antigen
As to the kind of experiment: flow cytometry on SK-OV-3 cells, APC anti-human IgG Fc secondary antibody, mean fluorescence intensity, 4-parameter fit; drawn table.

Experiment [12] deals with T7, TROP2 on tumor cell lines (UniProt P09758 27-323, limits assumed).
T7 construct: whole, on cells; also called tumor-associated calcium signal transducer 2; TROP2 on H292, NCI-N87, HT-29
T7 sequence (looked up): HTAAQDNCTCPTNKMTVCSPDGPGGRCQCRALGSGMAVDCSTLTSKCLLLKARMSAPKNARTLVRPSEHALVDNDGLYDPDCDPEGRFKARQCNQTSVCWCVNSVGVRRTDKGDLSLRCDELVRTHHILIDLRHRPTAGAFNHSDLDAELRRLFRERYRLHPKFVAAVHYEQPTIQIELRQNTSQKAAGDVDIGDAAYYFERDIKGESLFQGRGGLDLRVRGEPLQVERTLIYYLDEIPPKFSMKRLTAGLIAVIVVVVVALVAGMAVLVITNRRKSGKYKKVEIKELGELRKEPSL
Description: flow cytometry, H292 cells.
Description: (§2) H292, NCI-N87, or HT29 cells were cultured and seeded in 96-well plates at 1.0×10⁵ cells/well and incubated with serially diluted test anti-TROP2 BsAbs for 30 minutes at 4° C. in 2% FBS/RPMI1640 buffer. Next, the cells were washed twice with DPBS and further incubated with secondary anti-human IgG antibodies (APC-anti-human IgG Fc antibody, 1:300 dilution for H292 cell; APC-F (ab′) 2 fragment goat anti-human IgG (H+L), 1:500 dilution for NCI-N87 and HT29 cells) for 30 minutes at 4° C. Finally, the cells were washed twice with DPBS and resuspended in FACS buffer for flow cytometry analysis. For analysis, the MFI values versus concentrations were plotted using FlowJo 10 software (FlowJo LLC) and the data were further fitted with four-parameter non-linear regression to obtain EC₅₀ values by GraphPad Prism version 7 for Windows.

The target in experiment [13] is T7, TROP2 on tumor cell lines. As to the kind of experiment: flow cytometry, HT-29 cells.
Description: as §2
Experiment [14] addresses T7, TROP2 on tumor cell lines. As to the kind of experiment: flow cytometry, NCI-N87 cells.
Description: as §2
For experiment [15], the target named is Human CTLA4 (ligand competition ELISA) (human, UniProt P16410 36-161, limits assumed). Description: ELISA, blocking of CTLA4-CD80.

One may read the EC50 as the concentration at which the effect is half-maximal. Usually Kd stands for the free concentration of one partner at which half of the binding sites on the other are occupied at equilibrium, for simple one-to-one binding. A higher Kd goes with lower affinity. One may read the koff as a measure of how fast the partners let go of each other. A higher koff goes with a short-lived complex. One may read the kon as the rate constant with which the complex forms. High values mean fast association, low ones slow association. One may read the IC50 as the point on the concentration scale where inhibition reaches its midpoint. A low value points to inhibition by little substance. Usually EC50 (read off the curve) stands for the midpoint of the concentration-response curve.
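Wherever Kd is given: Anti-human Fc biosensors captured the antibodies, then His-tagged protein analytes at 100 nM associated for 300 s and dissociated for 300 s, fitted by a 1:1 Langmuir model.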
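Wherever koff is given: Anti-human Fc biosensors captured the antibodies, then His-tagged protein analytes at 100 nM associated for 300 s and dissociated for 300 s, fitted by a 1:1 Langmuir model.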
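Wherever kon is given: Anti-human Fc biosensors captured the antibodies, then His-tagged protein analytes at 100 nM associated for 300 s and dissociated for 300 s, fitted by a 1:1 Langmuir model.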

T3 sequence (P16410 36-161 limits assumed): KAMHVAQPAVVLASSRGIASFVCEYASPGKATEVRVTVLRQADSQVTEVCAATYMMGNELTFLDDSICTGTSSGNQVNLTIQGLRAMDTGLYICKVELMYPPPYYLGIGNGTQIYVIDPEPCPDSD
T5 sequence (P31041 20-150 limits assumed): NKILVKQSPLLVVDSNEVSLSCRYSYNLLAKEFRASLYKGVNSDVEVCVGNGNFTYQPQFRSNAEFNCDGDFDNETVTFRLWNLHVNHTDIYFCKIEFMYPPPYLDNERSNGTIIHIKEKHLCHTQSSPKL
Human CTLA4 (ligand competition ELISA), sequence (P16410 36-161 limits assumed): as the sequence (P16410 36-161 limits assumed) above

B1: TY24890 (antibody, human IgG4 S228P, kappa, V domains shown)
VH: EVQLVESGGGLVQPGGSLRLSCAASGYSISSGHHWGWIRQAPGKGLEWIGEIYHSGSTYYSPSLKSRVTISRDNSKNTLYLQLNSLRAEDTAVYYCARRELGYAYFDYWGQGTLVTVSS
VL: EIVLTQSPATLSLSPGERATLSCRASQDIRKYLAWYQQKPGQAPRLLIYAASTLQSGVPARFSGSGSGTDFTLTISSLEPEDFAVYYCQQYYRTPLTFGQGTKVEIKR
notes: hIgG4/S241P
Turning to B1, in experiment [1], the EC50 worked out at 1.55 nM. Also, in experiment [2], the Kd came out at 4.44 nM, the koff amounted to 0.000437 s⁻¹ and the kon turned out to be 98500 M⁻¹ s⁻¹. In [3], the affinity, expressed as Kd, was 3.13 nM; the off-rate constant (koff) was found to be 0.00344 s⁻¹; the kon was 1.1e+06 M⁻¹ s⁻¹. Further, a half-maximal response in [4] (EC50) required 0.59 nM. Also, half-maximal inhibition in [5] (IC50) was put at 0.21 nM. The binding result in experiment [6] is “no binding (tested: about 10^-6.9 M)”.

B2: TY24773 (antibody, human IgG4 S228P, kappa, V domains shown)
VH: EVQLVESGGGLVQPGGSLRLSCAASGYSISSGYHWGWIRQAPGKGLEWIGEIYHSGSTYYSPSLKSRVTISRDNSKNTLYLQLNSLRAEDTAVYYCARKDYYYALDYWGQGTLVTVSS
VL: DIQLTQSPSSLSASVGDRVTITCRASQSVDFYGKSFLHWYQQKPGKAPKLLIYAASTLQSGVPSRFSGSGSGTDFTLTISSLQPEDFATYYCQQSYRTPLTFGQGTKVEIKR
notes: hIgG4/S241P
In the case of B2, in experiment [7], the binding result is listed as “no binding (tested: 100 nM CTLA4)”. In addition, in experiment [2], the Kd amounted to 8.29 nM, the koff was found to be 0.000319 s⁻¹ and the kon is 38500 M⁻¹ s⁻¹. This molecule also gave an EC50 in experiment [4] of 0.71 nM.

B3: TY24853 (antibody, human IgG4 S228P, kappa, V domains shown)
VH: EVQLVESGGGLVQPGGSLRLSCAASGYSITSGHHWSWIRQAPGKGLEWIGEIYHSGSTYYSPSLKSRVTISRDNSKNTLYLQLNSLRAEDTAVYYCARKDDYYAFDYWGQGTLVTVSS
VL: DIQLTQSPSSLSASVGDRVTITCRASESVDFYGISFLHWYQQKPGKAPKLLIYAASTLQSGVPSRFSGSGSGTDFTLTISSLQPEDFATYYCQQSYRTPITFGQGTKVEIKR
notes: hIgG4/S241P
Regarding B3, in experiment [7], the binding result is “no binding (tested: 100 nM CTLA4)”. In [2], this molecule gave a Kd of 3.96 nM, a dissociation rate constant (koff) of 0.000164 s⁻¹ and a kon of 41600 M⁻¹ s⁻¹. This molecule showed an EC50 in experiment [4] of 0.43 nM.

B4: TY24865 (antibody, human IgG4 S228P, kappa)
heavy: not shown
light: DIQLTQSPSSLSASVGDRVTITCRASQSVDFHGISFLHWYQQKPGKAPKLLIYAASSLQSGVPSRFSGSGSGTDFTLTISSLQPEDFATYYCQQSYRSPRTFGQGTKVEIKRTVAAPSVFIFPPSDEQLKSGTASVVCLLNNFYPREAKVQWKVDNALQSGNSQESVTEQDSKDSTYSLSSTLTLSKADYEKHKVYACEVTHQGLSSPVTKSFNRGEC
notes: hIgG4/S241P; also called parental anti-CD28 antibody
In the case of B4, the EC50 was 0.58 nM in experiment [1], > 4.94 nM in experiment [8] and 0.46 nM in [4]. Moreover, the Kd in experiment [2] is < 0.001 nM. For the same molecule, in [3], the binding result was “no binding (tested: 100 nM CTLA4)”. Also, the IC50 in [5] came to 0.68 nM. The “EC50 (read off the curve)” value in experiment [9] was ~0.7 nM; in [10] it was ~0.9 nM.

B5: TY25238 (bispecific antibody)
chain 1: not shown
chain 2: not shown
chain 3: QAVVTQEPSLTVSPGGTVTLTCGSSTGAVTTSNYPNWVQQKPGQAPRGLIGGTNKRAPGVPARFSGSLLGGKAALTLSGAQPEDEAEYYCALWYSNLWVFGGGTKLTVLGGGGSGGGGSGGGGSGGGGSEVQLVESGGGLVQPGGSLRLSCAASGFTFNTYAINWVRQAPGKGLEWVGRIRSKYNNYATYYAESVKGRFTISRDDSKNTLYLQINSLRAEDTAVYYCVRHGNFGTSYVSWFAYWGQGTLVTVSSEPKSSDKTHTCPPCPAPELLGGPSVFLFPPKPKDTLMISRTPEVTCVVVDVSHEDPEVKFNWYVDGVEVHNAKTKPREEQYASTYRVVSVLTVLHQDWLNGKEYKCKVSNKALPAPIEKTISKAKGQPREPQVYTDPPSRDELTKNQVSLTCLVDGFYPSDIAVEWESNGQPENCYKTTPPVLDSDGSFFLYSKLTVDKSRWQQGNVFSCSVMHEALHNHYTQDSLSLSPGK
As for B5, in experiment [11], the EC50 is 3.74 nM.

B6: TY27571 (bispecific antibody, human IgG1, kappa, N297A)
light: DIQLTQSPSSLSASVGDRVTITCRASQDVSIAVAWYQQKPGKAPKLLIYSASYRYTGVPARFSGSGSGTDFTLTISSLQPEDFATYYCQQHYITPLTFGQGTKVEIKRTVAAPSVFIFPPSDEQLKSGTASVVCLLNNFYPREAKVQWKVDNALQSGNSQESVTEQDSKDSTYSLSSTLTLSKADYEKHKVYACEVTHQGLSSPVTKSFNRGEC
heavy: QVQLLQSGSELKKPGASVKVSCKASGYTFTNYGINWVRQAPGQGLEWLGWIHTYTGEPTYTDDFKGRFVFSLDTSVSTAYLQISSLKADDTAVYYCARGGFGSSYWYFDVWGQGTLVTVSSASTKGPSVFPLAPSSKSTSGGTAALGCLVKDYFPEPVTVSWNSGALTSGVHTFPAVLQSSGLYSLSSVVTVPSSSLGTQTYICNVNHKPSNTKVDKKVEPKSCDKTHTCPPCPAPELLGGPSVFLFPPKPKDTLMISRTPEVTCVVVDVSHEDPEVKFNWYVDGVEVHNAKTKPREEQYASTYRVVSVLTVLHQDWLNGKEYKCKVSNKALPAPIEKTISKAKGQPREPQVYTLPPSRKKLTKNQVKLTCLVKGFYPSDIAVEWESNGQPENNYKTTPPVLDCDGSFFLYSKLTVDKSRWQQGNVFSCSVMHEALHNHYTQKSLSLSPGK
chain: DIQLTQSPSSLSASVGDRVTITCRASQSVDFHGISFLHWYQQKPGKAPKLLIYAASSLQSGVPSRFSGSGSGTDFTLTISSLQPEDFATYYCQQSYRSPRTFGQGTKVEIKGGGGSGGGGSGGGGSGGGGSEVQLVESGGGLVQPGGSLRLSCAASGFSLSTGGVGVSWIRQAPGKGLEWIGEIYHSGSTYYSPSLKSRVTISRDNSKNTLYLQLNSLRAEDTAVYYCARYEYYYYDFDYWGQGTLVTVSSEPKSSDKTHTCPPCPAPELLGGPSVFLFPPKPKDTLMISRTPEVTCVVVDVSHEDPEVKFNWYVDGVEVHNAKTKPREEQYASTYRVVSVLTVLHQDWLNGKEYKCKVSNKALPAPIEKTISKAKGQPREPQVYTDPPSRDELTKNQVSLTCLVDGFYPSDIAVEWESNGQPENCYKTTPPVLDSDGSFFLYSKLTVDKSRWQQGNVFSCSVMHEALHNHYTQDSLSLSPGK
notes: also called anti-TROP2xCD28 BsAb
For the molecule B6, the concentration giving a half-maximal response (EC50) came out at 0.822 nM in [12], 0.559 nM in experiment [13] and 0.911 nM in [14].

B7: TY21580 (antibody, V domains shown)
VH: EVQLVESGGGLVQPGGSLRLSCAASGYSISSGYHWSWIRQAPGKGLEWLARIDWDDDKYYSTSLKSRLTISRDNSKNTLYLQLNSLRAEDTAVYYCARSYVYFDYWGQGTLVTVSS
VL: DIQLTQSPSSLSASVGDRVTITCRASQSVRGRFLAWYQQKPGKAPKLLIYDASNRATGIPSRFSGSGSGTDFTLTISSLQPEDFATYYCQQSSSWPPTFGQGTKVEIKR
The molecule B7 returned an IC50 in experiment [15] of 37.2 nM.
